Reference: patent US5688488A, “Composition and method for tumor imaging” (priority 1995, dated 1997)
Like-named read-outs stand apart in the source and are kept apart here.

Legend:
[1] = test system: KB cells; assay: Uptake of ^67 Ga-DF-folate complex by cultured KB cells; assay type: cell-based, human
Protocol: Cell Culture. KB cells, a human nasopharyngeal epidermal carcinoma cell line that greatly overexpresses the folate binding protein, were cultured continuously as a monolayer at 37° C. in a humidified atmosphere containing 5% CO2 in folate-deficient modified Eagle's medium (FDMEM) (a folate-free modified Eagle's medium supplemented with 10% (v/v) heat-inactivated fetal calf serum as the only source of folate) containing penicillin (50 units/mL), streptomycin (50 μg/mL), and 2 mM L-glutamine. The final folate concentration in the complete FDMEM is the physiological range (~2 nM). 48 h prior to each experiment, the cells were transferred to 35 mm culture dishes at 5×10^5 cells per dish and grown to ~80% confluent.
Because folate and its conjugates bind to cell surface receptors at 4° C., but are capable of endocytosis only at higher temperatures, it is possible to separately evaluate the kinetics of binding the internalization of folate by measuring the rates of folate conjugate uptake at the two temperatures. […] By the end of the 30 min incubation, binding approached to saturation with ~18% of the initial radioactivity found associated with a cell surface.
Incubation at 37° C., a temperature which permits both binding and endocytosis, yielded similar kinetic results, however, maximal uptake reached 32% of the total conjugate added. Presumably, the difference in magnitude of the two cellular uptake curves reflects the ability of the folate receptor to internalize the conjugate and then recycle to the cell surface in its unoccupied form. […] This latter result is consistent with the inability of the α-conjugate to compete with free folate for the cell surface receptor.
To verify the involvement of a cell surface folate receptor in mediating the uptake of ^67 Ga-DF-folate(γ), binding and internalization of the complex were evaluated as a function of the complex's concentration. Cellular uptake of ^67 Ga-DF-folate(γ) was concentration dependent at both 4° C. and 37° C., saturating at levels of 20% and 35% of the total radioactivity added, respectively.

[2] = test system: Subcutaneous KB Cell Tumors; conditions: mouse, in vivo, iv; for Tumor-to-Non-target Ratio: Tumor/blood / Tumor-to-Non-target Ratio: Tumor/kidney / Tumor-to-Non-target Ratio: Tumor/liver / Tumor-to-Non-target Ratio: Tumor/muscle: 240 min; for Percentage of Injected Dose per Gram of Tissue: Blood / Percentage of Injected Dose per Gram of Tissue: Heart / Percentage of Injected Dose per Gram of Tissue: Kidney / Percentage of Injected Dose per Gram of Tissue: Liver / Percentage of Injected Dose per Gram of Tissue: Lungs / Percentage of Injected Dose per Gram of Tissue: Muscle / Percentage of Injected Dose per Gram of Tissue: Tumor: 4 h
[3] = In vivo delivery to mice of ^125 I soybean trypsin inhibitor; conditions: 15 minutes after tail vein injection, perfused
Protocol: Mice (25 g) were then injected with either the biotinylated SBTI or the control SBTI by insertion of a hypodermic syringe containing a 25 gauge needle into the tail vein of the mouse. After 15 minutes, each mouse was sacrificed and then perfused with heparin-containing isotonic saline via the direct cardiac influx and efflux method.

[4] = test system: KB cells (a human nasopharyngeal cell line); assay: Uptake of ^125 I-labeled folate-labeled protein by KB cells; assay type: cell-based; conditions: procedure of Example 17
[5] = test system: KB Tumors; conditions: mouse, in vivo, iv
[6] = test system: KB Tumors; assay: Biodistribution of ^125 I-RNase-Folate conjugate and ^125 I-RNase control following I.V. administration to athymic mice with KB tumors; conditions: folate-free diet

CC(=O)N([O-])CCCCCNC(=O)CCC(=O)N([O-])CCCCCNC(=O)CCC(=O)N([O-])CCCCCN.[67Ga+3] [^67 Ga-DF, reference compound]
uptake by the KB cells ([1]; controls): did not show any significant uptake
Tumor-to-Non-target Ratio: Tumor/blood [2]: 3.9 ± 1.2
Tumor-to-Non-target Ratio: Tumor/kidney [2]: 0.08 ± 0.01
Tumor-to-Non-target Ratio: Tumor/liver [2]: 1.16 ± 0.10
Tumor-to-Non-target Ratio: Tumor/muscle [2]: 2.56 ± 0.15
Percentage of Injected Dose per Gram of Tissue: Blood [2]: 0.026 ± 0.009 % of injected dose per gram
Percentage of Injected Dose per Gram of Tissue: Heart [2]: 0.021 ± 0.002 % of injected dose per gram
Percentage of Injected Dose per Gram of Tissue: Kidney [2]: 1.26 ± 0.19 % of injected dose per gram
Percentage of Injected Dose per Gram of Tissue: Liver [2]: 0.082 ± 0.010 % of injected dose per gram
Percentage of Injected Dose per Gram of Tissue: Lungs [2]: 0.054 ± 0.010 % of injected dose per gram
Percentage of Injected Dose per Gram of Tissue: Muscle [2]: 0.037 ± 0.001 % of injected dose per gram
Percentage of Injected Dose per Gram of Tissue: Tumor [2]: 0.094 ± 0.004 % of injected dose per gram

O=C([O-])CC(O)(CC(=O)[O-])C(=O)[O-].[67Ga+3] [^67 Ga-citrate, reference compound]
cell-associated ^67 Ga radioactivity, fold lower than ^67 Ga-DF-folate(γ) ([1]; 37° C., 30 min): 106 fold
Tumor-to-Non-target Ratio: Tumor/blood [2]: 0.84 ± 0.19
Tumor-to-Non-target Ratio: Tumor/kidney [2]: 2.4 ± 0.3
Tumor-to-Non-target Ratio: Tumor/liver [2]: 2.3 ± 0.2
Tumor-to-Non-target Ratio: Tumor/muscle [2]: 5.4 ± 0.7
Percentage of Injected Dose per Gram of Tissue: Blood [2]: 13.5 ± 3.2 % of injected dose per gram
Percentage of Injected Dose per Gram of Tissue: Heart [2]: 3.4 ± 0.2 % of injected dose per gram
Percentage of Injected Dose per Gram of Tissue: Kidney [2]: 4.6 ± 0.4 % of injected dose per gram
Percentage of Injected Dose per Gram of Tissue: Liver [2]: 4.7 ± 0.3 % of injected dose per gram
Percentage of Injected Dose per Gram of Tissue: Lungs [2]: 9.1 ± 2.7 % of injected dose per gram
Percentage of Injected Dose per Gram of Tissue: Muscle [2]: 2.04 ± 0.29 % of injected dose per gram
Percentage of Injected Dose per Gram of Tissue: Tumor [2]: 10.9 ± 0.2 % of injected dose per gram

B1: Control SBTI: ^125 I soybean trypsin inhibitor left as an unmodified control (protein, UniProt P01070 25-205, looked up)
Trypsin inhibitor A: DFVLDNEGNPLENGGTYYILSDITAFGGIRAAPTGNERCPLTVVQSRNELDKGIGTIISSPYRIRFIAEGHPLSLKFDSFAVIMLCVGIPTEWSVVEDLPEGPAVKIGENKDAMDGWFRLERVSDDEFNNYKLVFCPQQAEDDKCGDIGISIDHDDGTRRLVVSKNKPLVVQFQKLDKESL
modifications: 125I label
Counts per minute/gram wet weight: Brain [3]: 0 Counts per minute/gram wet weight
Counts per minute/gram wet weight: Heart [3]: 0 Counts per minute/gram wet weight
Counts per minute/gram wet weight: Intestine [3]: 0 Counts per minute/gram wet weight
Counts per minute/gram wet weight: Kidney [3]: 5152 Counts per minute/gram wet weight
Counts per minute/gram wet weight: Liver [3]: 535 Counts per minute/gram wet weight
Counts per minute/gram wet weight: Lung [3]: 107 Counts per minute/gram wet weight
Counts per minute/gram wet weight: Muscle [3]: 0 Counts per minute/gram wet weight

B2: SBTI: soybean trypsin inhibitor, folate-ligated as in Example 17 (conjugate, UniProt P01070 25-205, looked up)
Trypsin inhibitor A: B1 Trypsin inhibitor A
modifications: folate conjugated
uptake of SBTI by KB cells [4]: Folate ligation was again demonstrated to be essential for uptake

B3: ^125 I-RNase-Folate: ^125 I labeled ribonuclease-folate conjugate (conjugate, UniProt P61823 27-150, looked up)
Ribonuclease pancreatic: KETAAAKFERQHMDSSTSAASSSNYCNQMMKSRNLTKDRCKPVNTFVHESLADVQAVCSQKNVACKNGQTNCYQSYSTMSITDCRETGSSKYPNCAYKTTQANKHIIVACEGNPYVPVHFDASV
modifications: 125I label; folate conjugated
Percentage of Injected Dose per Gram: Blood ([5]; 1 h): 5.34 ± 1.07 % of injected dose per gram
Percentage of Injected Dose per Gram: Bone ([5]; 1 h): 3.20 ± 0.23 % of injected dose per gram
Percentage of Injected Dose per Gram: Heart ([5]; 1 h): 2.01 ± 0.22 % of injected dose per gram
Percentage of Injected Dose per Gram: Intestines ([5]; 1 h): 2.03 ± 0.28 % of injected dose per gram
Percentage of Injected Dose per Gram: Kidney ([5]; 1 h): 16.08 ± 2.76 % of injected dose per gram
Percentage of Injected Dose per Gram: Liver ([5]; 1 h): 9.78 ± 1.11 % of injected dose per gram
Percentage of Injected Dose per Gram: Lungs ([5]; 1 h): 4.19 ± 0.61 % of injected dose per gram
Percentage of Injected Dose per Gram: Muscle ([5]; 1 h): 1.73 ± 0.32 % of injected dose per gram
Percentage of Injected Dose per Gram: Spleen ([5]; 1 h): 9.94 ± 1.37 % of injected dose per gram
Percentage of Injected Dose per Gram: Stomach ([5]; 1 h): 21.07 ± 2.57 % of injected dose per gram
Percentage of Injected Dose per Gram: Testes ([5]; 1 h): 1.50 ± 0.18 % of injected dose per gram
Percentage of Injected Dose per Gram: Tumor ([5]; 1 h): 5.35 ± 0.54 % of injected dose per gram
Tumor/Blood ([5]; 60 min): 1.02 ± 0.16
Tumor/Muscle ([5]; 60 min): 3.14 ± 0.43
Percentage of Injected Dose per Gram: Blood ([5]; 4 h): 2.30 ± 0.62 % of injected dose per gram
Percentage of Injected Dose per Gram: Bone ([5]; 4 h): 1.17 ± 0.28 % of injected dose per gram
Percentage of Injected Dose per Gram: Heart ([5]; 4 h): 0.93 ± 0.39 % of injected dose per gram
Percentage of Injected Dose per Gram: Intestines ([5]; 4 h): 0.95 ± 0.16 % of injected dose per gram
Percentage of Injected Dose per Gram: Kidney ([5]; 4 h): 5.11 ± 1.27 % of injected dose per gram
Percentage of Injected Dose per Gram: Liver ([5]; 4 h): 3.29 ± 0.77 % of injected dose per gram
Percentage of Injected Dose per Gram: Lungs ([5]; 4 h): 1.97 ± 0.77 % of injected dose per gram
Percentage of Injected Dose per Gram: Muscle ([5]; 4 h): 0.98 ± 0.54 % of injected dose per gram
Percentage of Injected Dose per Gram: Spleen ([5]; 4 h): 2.78 ± 0.73 % of injected dose per gram
Percentage of Injected Dose per Gram: Stomach ([5]; 4 h): 26.45 ± 8.05 % of injected dose per gram
Percentage of Injected Dose per Gram: Testes ([5]; 4 h): 1.0 ± 0.15 % of injected dose per gram
Tumor/Blood ([5]; 1440 min): 11.88 ± 3.71
Tumor/Muscle ([5]; 1440 min): 32.6 ± 6.7
Percentage of Injected Dose per Gram: Blood ([5]; 24 h): 0.04 ± 0.01 % of injected dose per gram
Percentage of Injected Dose per Gram: Bone ([5]; 24 h): 0.09 ± 0.03 % of injected dose per gram
Percentage of Injected Dose per Gram: Heart ([5]; 24 h): 0.024 ± 0.006 % of injected dose per gram
Percentage of Injected Dose per Gram: Intestines ([5]; 24 h): 0.05 ± 0.006 % of injected dose per gram
Percentage of Injected Dose per Gram: Kidney ([5]; 24 h): 0.72 ± 0.07 % of injected dose per gram
Percentage of Injected Dose per Gram: Liver ([5]; 24 h): 0.38 ± 0.03 % of injected dose per gram
Percentage of Injected Dose per Gram: Lungs ([5]; 24 h): 0.04 ± 0.01 % of injected dose per gram
Percentage of Injected Dose per Gram: Muscle ([5]; 24 h): 0.013 ± 0.002 % of injected dose per gram
Percentage of Injected Dose per Gram: Spleen ([5]; 24 h): 0.23 ± 0.04 % of injected dose per gram
Percentage of Injected Dose per Gram: Stomach ([5]; 24 h): 0.26 ± 0.14 % of injected dose per gram
Percentage of Injected Dose per Gram: Testes ([5]; 24 h): 0.021 ± 0.004 % of injected dose per gram
Percentage of Injected Dose per Gram: Tumor ([5]; 24 h): 0.41 ± 0.02 % of injected dose per gram
Percentage of Injected Dose per Gram: Brain ([6]; 1 hour after i.v.): 0.29 ± 0.04 % of injected dose per gram
Percentage of Injected Dose per Gram: Brain ([6]; 4 hours after i.v.): 0.19 ± 0.14 % of injected dose per gram
Percentage of Injected Dose per Gram: Brain ([6]; 24 hours after i.v.): 0.007 ± 0.001 % of injected dose per gram

B4: ^125 I-RNase: ^125 I labeled ribonuclease (lacking folate), control (protein, UniProt P61823 27-150, looked up)
Ribonuclease pancreatic: B3 Ribonuclease pancreatic
modifications: 125I label
Percentage of Injected Dose per Gram: Brain ([6]; 1 hour after i.v.): 0.19 ± 0.06 % of injected dose per gram
Percentage of Injected Dose per Gram: Brain ([6]; 4 hours after i.v.): 0.06 ± 0.004 % of injected dose per gram
Percentage of Injected Dose per Gram: Brain ([6]; 24 hours after i.v.): 0.0055 ± 0.0006 % of injected dose per gram
